18 substances from IntAct's records for PubMed 31515488 can be followed below.

Among the targets are mlh1_human MLH1 (UniProt P40692); nmna1_human NMNAT1 (UniProt Q9HAN9); klhl2_human KLHL2 (UniProt O95198); hbaz_human HBZ (UniProt P02008); cep76_human CEP76 (UniProt Q8TAP6); itf2_human TCF4 (UniProt P15884); inca1_human INCA1 (UniProt Q0VD86); tcl1a_human TCL1A (UniProt P56279).
The next test addresses T1, neca2_human NECAB2 (UniProt Q7Z6G3).
T1 sequence: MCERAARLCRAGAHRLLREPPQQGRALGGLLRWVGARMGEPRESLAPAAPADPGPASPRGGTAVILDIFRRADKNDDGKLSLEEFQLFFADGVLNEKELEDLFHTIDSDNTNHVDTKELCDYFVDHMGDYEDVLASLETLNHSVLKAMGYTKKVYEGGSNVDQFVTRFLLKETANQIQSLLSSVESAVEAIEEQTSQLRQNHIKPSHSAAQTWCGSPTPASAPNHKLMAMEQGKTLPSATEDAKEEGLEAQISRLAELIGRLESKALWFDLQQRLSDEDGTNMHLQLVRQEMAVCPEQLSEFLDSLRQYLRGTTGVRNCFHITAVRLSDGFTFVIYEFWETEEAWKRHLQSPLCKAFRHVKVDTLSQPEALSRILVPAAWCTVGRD

Another test deals with T2, magd1_human MAGED1 (UniProt Q9Y5V3).
T2 sequence: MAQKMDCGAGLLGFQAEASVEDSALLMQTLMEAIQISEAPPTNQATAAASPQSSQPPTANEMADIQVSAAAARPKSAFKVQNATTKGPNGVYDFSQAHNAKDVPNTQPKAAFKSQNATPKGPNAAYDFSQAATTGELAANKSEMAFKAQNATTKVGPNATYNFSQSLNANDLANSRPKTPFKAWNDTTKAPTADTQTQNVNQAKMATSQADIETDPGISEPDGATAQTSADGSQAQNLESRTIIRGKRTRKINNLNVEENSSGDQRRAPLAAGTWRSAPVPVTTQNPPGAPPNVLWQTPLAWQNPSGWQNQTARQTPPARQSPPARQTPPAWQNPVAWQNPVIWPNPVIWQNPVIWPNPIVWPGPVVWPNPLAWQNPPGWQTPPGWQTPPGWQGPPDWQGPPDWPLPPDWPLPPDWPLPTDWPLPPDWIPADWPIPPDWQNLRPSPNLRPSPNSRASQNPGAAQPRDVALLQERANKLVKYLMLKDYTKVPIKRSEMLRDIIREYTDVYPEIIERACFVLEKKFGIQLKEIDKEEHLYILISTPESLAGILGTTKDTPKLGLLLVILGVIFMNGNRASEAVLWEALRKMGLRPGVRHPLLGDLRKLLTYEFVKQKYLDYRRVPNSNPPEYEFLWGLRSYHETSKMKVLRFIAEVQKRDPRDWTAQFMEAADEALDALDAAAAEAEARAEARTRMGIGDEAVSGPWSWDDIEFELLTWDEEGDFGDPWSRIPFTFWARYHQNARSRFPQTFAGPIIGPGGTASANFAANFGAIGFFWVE

For the next test, the target named is T3, srtd3_human SERTAD3 (UniProt Q9UJW9).
T3 sequence: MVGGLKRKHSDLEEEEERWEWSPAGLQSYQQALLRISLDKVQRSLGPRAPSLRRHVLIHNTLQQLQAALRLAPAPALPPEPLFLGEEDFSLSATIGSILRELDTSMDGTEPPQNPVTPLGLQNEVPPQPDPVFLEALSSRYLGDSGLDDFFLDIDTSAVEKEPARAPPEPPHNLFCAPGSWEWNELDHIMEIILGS

“Importin subunit alpha-1 (Homo sapiens) (from UniProt P52292) P216S”: the “effect of a mutation on the interaction” value in the test with mlh1_human MLH1, with neca2_human NECAB2, in the test with magd1_human MAGED1, with nmna1_human NMNAT1 and with srtd3_human SERTAD3 was “with no effect” in each case.

Turning to “Zinc finger protein 114 (Homo sapiens), Q8NC26 A229P”, the “effect of a mutation on the interaction” value with klhl2_human KLHL2 is on record as “with no effect”.

As for “Hemoglobin subunit beta (Homo sapiens), P68871 L115P”, in the test with hbaz_human HBZ, the “effect of a mutation on the interaction” value was “disrupting interaction strength”.

Regarding “Importin subunit alpha-1 (Homo sapiens) (from UniProt P52292) V506I”, the “effect of a mutation on the interaction” value in the test with neca2_human NECAB2, in the test with magd1_human MAGED1, with nmna1_human NMNAT1 and in the test with srtd3_human SERTAD3 was “with no effect” throughout.

“Importin subunit alpha-1 (Homo sapiens) (from UniProt P52292) V506D”: the “effect of a mutation on the interaction” value with neca2_human NECAB2, in the test with magd1_human MAGED1, with nmna1_human NMNAT1 and in the test with srtd3_human SERTAD3 was “with no effect” each time.

Consider “Calcium-binding protein 5 (Homo sapiens), Q9NP86 R44Q”, for which the “effect of a mutation on the interaction” value in the test with cep76_human CEP76, in the test with itf2_human TCF4 and with inca1_human INCA1 was “with no effect” in each case.

Regarding “Hemoglobin subunit beta (Homo sapiens), P68871 V127G”, in the test with hbaz_human HBZ, the “effect of a mutation on the interaction” value is “disrupting interaction strength”.

For “Calcium-binding protein 5 (Homo sapiens), Q9NP86 T65R”, the “effect of a mutation on the interaction” value with cep76_human CEP76 is recorded as “with no effect”; in the test with itf2_human TCF4 it was “disrupting interaction strength”; with inca1_human INCA1, “with no effect”.

In the case of “"DNA (cytosine-5)-methyltransferase 3A" (Homo sapiens) (from UniProt Q9Y6K1) P904L”, the “effect of a mutation on the interaction” value with tcl1a_human TCL1A is “disrupting interaction strength”.

With “Hemoglobin subunit beta (Homo sapiens), P68871 F123S”, the “effect of a mutation on the interaction” value with hbaz_human HBZ is “disrupting interaction strength”.

For the substance “Hemoglobin subunit beta (Homo sapiens), P68871 F104L”, the “effect of a mutation on the interaction” value in the test with hbaz_human HBZ was “disrupting interaction strength”.

As to “Hemoglobin subunit beta (Homo sapiens), P68871 E7V”, the “effect of a mutation on the interaction” value with hbaz_human HBZ is listed as “disrupting interaction strength”.

In the case of “Hemoglobin subunit beta (Homo sapiens), P68871 P101A”, the “effect of a mutation on the interaction” value with hbaz_human HBZ is given as “disrupting interaction strength”.

Consider “Zinc finger protein 114 (Homo sapiens), Q8NC26 E19G”, for which the “effect of a mutation on the interaction” value in the test with klhl2_human KLHL2 is “with no effect”.

With “"DNA (cytosine-5)-methyltransferase 3A" (Homo sapiens) (from UniProt Q9Y6K1) V372I”, the “effect of a mutation on the interaction” value with tcl1a_human TCL1A is “with no effect”.

In the case of “Zinc finger protein 114 (Homo sapiens), Q8NC26 D61V”, in the test with klhl2_human KLHL2, the “effect of a mutation on the interaction” value is “with no effect”.

Consider “"DNA (cytosine-5)-methyltransferase 3A" (Homo sapiens) (from UniProt Q9Y6K1) N501S”, for which the “effect of a mutation on the interaction” value with tcl1a_human TCL1A is given as “with no effect”.

Take “Hemoglobin subunit beta (Homo sapiens), P68871 N103Y”: the “effect of a mutation on the interaction” value with hbaz_human HBZ is listed as “with no effect”.
